Assay results reported in patent publication US8586538B2, “Method of treating a patient suffering from a bleeding disorder comprising administering an antibody against the A3-C1 of FVIII” (Stichting Sanquin Bloedvoorziening, priority 2002, dated 2013).

Key:
[1] = molecular target: FVIIIa-FIXa complex (Homo sapiens, UniProt P00451+P00740); settings: by interfering with the assembly of the FVIIIa-FIXa complex; cited from earlier work
[2] = molecular target: T1, wild-type recombinant FVIII light chain (Homo sapiens, UniProt P00451); test: SPR binding of scFv KM41 to wild-type recombinant FVIII light chain; settings: scFv 40 nM
T1 construct: FVIII/FV^1811-1818 light chain chimera and wild-type FVIII light chain were purified employing Q-Sepharose chromatography; made in house; host or cells: murine fibroblasts (C127) cells
T1 sequence (P00451 1668-2351 limits assumed): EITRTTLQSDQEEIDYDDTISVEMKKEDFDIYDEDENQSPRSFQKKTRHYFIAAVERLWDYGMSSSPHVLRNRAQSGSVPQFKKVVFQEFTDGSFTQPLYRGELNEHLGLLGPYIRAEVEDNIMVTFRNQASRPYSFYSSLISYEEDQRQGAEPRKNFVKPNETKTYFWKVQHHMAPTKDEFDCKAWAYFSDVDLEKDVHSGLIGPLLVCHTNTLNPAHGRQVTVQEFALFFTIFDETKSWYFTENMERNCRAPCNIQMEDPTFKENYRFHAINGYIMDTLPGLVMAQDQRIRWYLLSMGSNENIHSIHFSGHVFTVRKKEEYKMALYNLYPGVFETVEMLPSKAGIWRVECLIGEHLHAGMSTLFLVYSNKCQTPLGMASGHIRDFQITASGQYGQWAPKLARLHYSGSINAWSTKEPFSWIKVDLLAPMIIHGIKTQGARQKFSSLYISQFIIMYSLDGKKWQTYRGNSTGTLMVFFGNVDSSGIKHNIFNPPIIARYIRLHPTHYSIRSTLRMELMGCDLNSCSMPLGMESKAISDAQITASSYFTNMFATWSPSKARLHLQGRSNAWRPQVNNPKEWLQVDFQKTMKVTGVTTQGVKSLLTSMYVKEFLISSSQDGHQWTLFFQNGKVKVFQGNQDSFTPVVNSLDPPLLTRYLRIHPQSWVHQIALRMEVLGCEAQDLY
Procedure: FIG. 7. Binding of scFv KM41 to the FVIII/FV^1811-1818 light chain chimera. ScFv EL14 at a CM5 sensor chip (67 fmol/mm^2) was incubated with either the recombinant wild-type FVIII light chain or the recombinant FVIII/FV^1811-1818 chimera till a density of 20 fmol/mm^2, in 150 mM NaCl, 50 mM Tris (pH 7.4). ScFv KM41 (40 nM) was passed over two separate channels with immobilized intact FVIII light chain (I) or FVIII/FV^1811-1818 chimera (II), respectively. Response is indicated as Resonance Units (RU) and is corrected for nonspecific binding.
The kinetics of protein interactions was determined by surface plasmon resonance (SPR) analysis, employing a BIAcore™2000 biosensor system (Biacore AS, Uppsala, Sweden). […] Association of analyte was assessed in 150 mM NaCl, 2 mM CaCl2, 0.005% (v/v) Tween® 20, and 20 mM Hepes (pH 7.4) for 2 min, at a flow rate of 20 μl/min at 25° C. […] The association (kon) and dissociation (koff) rate constants were determined by using the BIAevaluation software 3.1 (Biacore AB, Uppsala, Sweden). […] Equilibrium dissociation constants (kd) were calculated from the ratio koff/kon. […]

Sequence of FVIIIa-FIXa complex (P00740 47-191 limits assumed, one chain of several): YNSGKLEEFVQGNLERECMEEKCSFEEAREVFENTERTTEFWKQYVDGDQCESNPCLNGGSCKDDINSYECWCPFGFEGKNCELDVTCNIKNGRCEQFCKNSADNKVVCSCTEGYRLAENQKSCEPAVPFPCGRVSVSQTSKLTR

Binding of scFv to immobilized wild-type recombinant FVIII light chain [2]: readily reacted
B1: scFv KM41: scFv antibody fragment directed against FVIII region Arg^1803-Lys^1818 (protein)
scFv: QVQLLQSAADVKKPGASVKVSCTASGYIFTSYDIDWVRQATGQGLEWMGWMNPNSGNAGFAQKFKGRLTLTRDTSTSTAYMELRRLESEDTAVYYCARSTPHSYSGSGLPPTSDSWGQGTLVTVSSGGGGSGGGGSGGGGSEIVLTQSPGTLSLSPGERATLSCRASQSVSSSFLGWYQQKPGQAPRLLIYGASSRATGIPDRFSGSGSGTDFTLTISRLEPEDFAVYYCQQYGISPLTFGGGTKLEIKRAAAEQKLISEEDLNGAAHHHHHH
Inhibition of FVIII procoagulant activity [1]: effective inhibitors
